Measured values taken from article PMC6163455 (Biomolecules, 2018).

What was measured:
CHO-K1/SpyC_C-BLA cells [1] = assay: live-cell confocal microscopy of split β-lactamase complementation; type: cell-based, Chinese hamster; settings: for cytosolic delivery and β-lactamase complementation signal by confocal microscopy: CHO-K1/SpyC_C-BLA cells, 4 µM protein, live cell confocal microscopy, Figure 3c–f
Source text: (a) Live-cell functional uptake can be measured when N-terminal β-lactamase (N-BLA), fused to a CPP sequence, penetrates the cell membrane to complement C-terminal β-lactamase protein (C-BLA) in the cytosol (step i). Expression of the split β-lactamase moieties as fusions with either SpyTag (CPP_N-BLA_SpyT) or SpyCatcher (SpyC_C-BLA) facilitates rapid formation of functional β-lactamase proteins through SpyT/SpyC ligation inside the cells (step ii). This internalization is detected after addition of dye substrate (step iii) through cleavage of cytosol-retained CCF2 (step iv), which is measured via a change in fluorescence signal from green (520 nm) to blue (450 nm). (b) Internalization of CPP_N-BLA_SpyT and β-lactamase complementation in CHO-K1/SpyC_C-BLA cells is dose-dependent, measured by CCF2 cleavage (increase in % blue viable cells as estimated by flow cytometry). […] Error bars represent standard error of the mean of two independent experiments (duplicate samples). […] Bar scale is 50 µm.
(§1) Successful complementation of β-lactamase was dose- and CPP-dependent, with a limit of detection of ≤1 µM of CPP_N-BLA_SpyT. β-Lactamase complementation and N-BLA fragment internalization was visually confirmed using live cell confocal microscopy in CHO-K1/SpyC_C-BLA cells treated with Phylomer CPP_N-BLA_SpyT proteins (Figure 3c–f). The fluorescence signal is detectable as early as 30 min (Figure S2a). Signal conversion over time was confirmed by imaging cells treated with 1746c27_N-BLA_SpyT at sequential time points (Figure S2b,c), thus completing validation of the split assay system.
Cells were seeded (CHO-K1, 37,500 cells/mL; T47D 37,500 cells/mL) onto 4-well ibiTreat chamber slides (Thermo Fisher Scientific) and incubated for 48 h at 37 °C, 5% CO2. The medium was removed and replaced with medium containing SpyC_BLA/CPP_SpyT conjugated or unconjugated SpyC_BLA proteins and cells were incubated for 2 h at 37 °C, 5% CO2. After incubation, the cells were washed to remove any SpyC_BLA protein that had not internalized, loaded with substrate CCF2-AM (2 µM final concentration in media containing 1% FCS), and incubated for 1 h at room temperature. Live cells were visualized through confocal microscopy. Images were collected using a Nikon C2 Confocal Microscope through a 40× differential interference contrast (DIC) objective after excitation by a 408 nm laser. Bar scales in images represent 50 µm or 14.6 µm (zoom magnification 3.4×).
Figure S2. Split β-lactamase assay time course.
Live cell confocal microscopy imaging the CPP-mediated cytosolic internalization of 1746c27_N-BLA_SpyT (8 µM) in CHO-K1/C-BLA cells at (a) 30 min, (b) 60 min, and (c) 120 min after addition of CCF2-AM dye. The β-lactamase complementation signal is detectable as early as 30 min and continues to convert over time. Repeated excitation over time results in photobleaching of the converted fluorescence resonance energy transfer (FRET) substrate. Bar scale is 50 µm. […]
(also on this page, place not known: De ad ( B) ( D) ( E) 1746c27_N-BLA_SpyT + CHO-K1/SpyC_C-BLA) […]

CHO-K1/SpyC_C-BLA cells [2] = assay: split β-lactamase cytosolic delivery assay (CCF2-AM, flow cytometry); type: cell-based, Chinese hamster; settings: CHO-K1/SpyC_C-BLA stable cells, blue fluorescent cells after 1 h, two independent experiments, duplicate samples, Figure 3b
Source text: SpyT/SpyC ligation enables specific covalent linkage of the split components when mixed together, thus reactivating β-lactamase activity. SpyC_C-BLA was selected for mammalian expression in stable cell lines, and N-BLA_SpyT was selected for CPP incorporation onto its N-terminus (CPP_N-BLA_SpyT). Constitutively expressed SpyC_C-BLA in the cytoplasm of stable cell lines can be complemented by CPP-delivered N-BLA_SpyT, thus forming functional β-lactamase.
In brief, CPP sequences are made as fusions to N-BLA_SpyT (CPP_N-BLA_SpyT, Figure 3a, step i). […] Cell penetrating peptide-dependent β-lactamase complementation and activity is detected by cleavage of the CCF2 substrate (Figure 3a, step iv). As in the full-length β-lactamase internalization assay, this reaction is measured as a shift in fluorescent signal from green to blue. […]
as §1, with “Signal conversion over time was confirmed by imaging cells treated with 1746c27_N-BLA_SpyT at sequential time points (Figure S2b,c), thus completing validation of the split assay system.” left out

Row | Molecule | cytosolic delivery and β-lactamase complementation signal by confocal microscopy (CHO-K1/SpyC_C-BLA cells [1]) | earliest time at which β-lactamase complementation signal is detectable (CHO-K1/SpyC_C-BLA cells [1]; 8 µM in CHO-K1/C-BLA cells, time after addition of CCF2-AM dye, imaged at 30, 60, 120 min, Figure S2) [min] | β-lactamase complementation signal (% blue viable cells) (CHO-K1/SpyC_C-BLA cells [2])
1 | 1746_N-BLA_SpyT: phylomer CPP 1746 fused to N-terminal β-lactamase fragment and SpyTag (protein, left off: His6, internal (after the CPP, by the printed letters), state not stated, phylomer CPP 1746 fused to N-terminal β-lactamase fragment and SpyTag) MASPLKPKKPKTQEKKKKQPPKPKKPKTQEKKKKQPPKPKRASSGSHHHHHHGTGAGSGHPETLVKVKDAEDQLGARVGYIELDLNSGKILESFRPEERFPMMSTFKVLLCGAVLSRIDAGQEQLGRRIHYSQNDLVEYSPVTEKHLTDGMTVRELCSAAITMSDNTAANLLLTTIGGPKELTAFLHNMGDHVTRLDRWEPELNEAIPNDERDTTTPAAMATTLRKLLTGGGSASGGSGTGATSGAHIVMVDAYKPTKGGTGGS | cytosolic delivery | – | –
2 | 1746c27_N-BLA_SpyT: phylomer CPP 1746c27 fused to N-terminal β-lactamase fragment and SpyTag (protein, left off: His6, internal (after the CPP, by the printed letters), state not stated, phylomer CPP 1746c27 fused to N-terminal β-lactamase fragment and SpyTag) MASKKKKQPPKPKKPKTQEKKKKQPPKPKRASSGSHHHHHHGTGAGSGHPETLVKVKDAEDQLGARVGYIELDLNSGKILESFRPEERFPMMSTFKVLLCGAVLSRIDAGQEQLGRRIHYSQNDLVEYSPVTEKHLTDGMTVRELCSAAITMSDNTAANLLLTTIGGPKELTAFLHNMGDHVTRLDRWEPELNEAIPNDERDTTTPAAMATTLRKLLTGGGSASGGSGTGATSGAHIVMVDAYKPTKGGTGGS | cytosolic delivery | 30 | –
3 | N-BLA_SpyT: N-terminal β-lactamase fragment fused to SpyTag; No CPP negative control of split assay (protein) MGHHHHHHGATLEVLFQGPGGSQLHPETLVKVKDAEDQLGARVGYIELDLNSGKILESFRPEERFPMMSTFKVLLCGAVLSRIDAGQEQLGRRIHYSQNDLVEYSPVTEKHLTDGMTVRELCSAAITMSDNTAANLLLTTIGGPKELTAFLHNMGDHVTRLDRWEPELNEAIPNDERDTTMPAAMATTLRKLLTGGGSASGGSGTGATSGAHIVMVDAYKPTKGVDG | minimal evidence of internalization | – | negligible effect
4 | 0084_N-BLA_SpyT: phylomer CPP 0084 fused to N-terminal β-lactamase fragment and SpyTag (protein, left off: His6, internal (after the CPP, by the printed letters), state not stated, phylomer CPP 0084 fused to N-terminal β-lactamase fragment and SpyTag) MASRKQKSLQTKLAENPPVPRKKRQSRPRWKQWLQKASSGSHHHHHHGTGAGSGHPETLVKVKDAEDQLGARVGYIELDLNSGKILESFRPEERFPMMSTFKVLLCGAVLSRIDAGQEQLGRRIHYSQNDLVEYSPVTEKHLTDGMTVRELCSAAITMSDNTAANLLLTTIGGPKELTAFLHNMGDHVTRLDRWEPELNEAIPNDERDTTTPAAMATTLRKLLTGGGSASGGSGTGATSGAHIVMVDAYKPTKGGTGGS | cytosolic delivery | – | –
